The values that follow come from paper PMC6563369, “Systematic unravelling of the inulin hydrolase from Bacillus amyloliquefaciens for efficient conversion of inulin to poly-(γ-glutamic acid)” (Biotechnology for Biofuels, 2019).

Holding throughout (experiment): DNS reducing sugar assay, Lineweaver-Burk
What all share (type): biochemical, Bacillus amyloliquefaciens
Holding throughout (details): 50 mM PBS pH 7.5, 55 °C, 20 min

Substrate in series [1]: OC[C@H]1O[C@@](CO)(O[C@H]2O[C@H](CO)[C@@H](O)[C@H](O)[C@H]2O)[C@@H](O)[C@@H]1O
From the text:
(§1) DNS reducing sugar assay, Lineweaver-Burk on CscA (inulin hydrolase)

Substrate in series [2]: OC[C@H]1O[C@H](OC[C@H]2O[C@H](OC[C@H]3O[C@H](O[C@]4(CO)O[C@H](CO)[C@@H](O)[C@@H]4O)[C@H](O)[C@@H](O)[C@@H]3O)[C@H](O)[C@@H](O)[C@H]2O)[C@H](O)[C@@H](O)[C@H]1O
Source text: as §1

Substrate in series [3]: OC[C@H]1O[C@H](OC[C@H]2O[C@H](O[C@]3(CO)O[C@H](CO)[C@@H](O)[C@@H]3O)[C@H](O)[C@@H](O)[C@@H]2O)[C@H](O)[C@@H](O)[C@H]1O
Source text: as §1

B1: CscA (inulin hydrolase) (Bacillus amyloliquefaciens DSM 7 = ATCC 23350) (protein)
chain: MDRIQQAEEALKKAEGKVKQRYRLGYHIMPRANWINDPNGLIQFKGEYHVFFQHHPFDENWGPMHWGHVKSKDLIHWEHLPIALAPGDAFDQSGCFSGSAVDDRGRLVLIYTGHNMIDPEKDLFYQTQNIAVSQDGAVFEKLQDNPVIAEPPEDSSRHFRDPKVWKHRGDWYMVVGNSTKENVGRVILYRSSDLRNWEYAGVLAQSDGHLGYMWECPDFFELGGKHVLLISPQGIEADGDSYKNLHQTGYLIGDYNDETNKFTHGAFKELDHGHDFYAVQTLLDDKGRRIAVGWMDMWESEMPTKADGWCGALTLPRELTLRDDHKLLMNPVEETKQLRKMKYRECAGRSVSGSYLAKTSEELLEVQVVYDVNDCDAETAGIKIRGLDEEELVLKYNLTDKKLTLDCTKMGKAKDGVRRVRMDASGKLALRIFIDRSSIEVFANHGEATMTSRIYPKEGRLGLELFSEKGAVKVEEFTYWTLKDIWKKS
notes: full-length ORF (1470 bp, 489 residues, no signal peptide), pET-28a BamHI/XhoI, His-tagged, expressed in E. coli BL21(DE3), Ni-NTA
Consider B1, for which, in series [1], the Km (as a rule, the concentration of substrate that gives half-maximal velocity) was determined as 4.33 ± 0.03 mM; the Vmax (usually the rate approached at saturating substrate) is 1760 µmol/min/mg; the kcat/Km (as a rule, the turnover number divided by the Michaelis constant) was 398000 ± 20000 M⁻¹ s⁻¹. Besides, in series [2], the Km was 19.08 ± 0.09 mM, the Vmax stood at 687 µmol/min/mg and the kcat/Km is 36500 ± 667 M⁻¹ s⁻¹. In series [3], the Michaelis constant (Km) worked out at 12.25 ± 0.07 mM, the Vmax came to 724 µmol/min/mg and the kcat/Km stood at 57500 ± 1330 M⁻¹ s⁻¹.
